Tested on: HA-GβL

myc-mTOR (full-length)
in vitro mTOR kinase activity (autophosphorylation and activity towards GST-S6K1): GβL-mediated stimulation of the mTOR kinase activity correlates with the amount of GβL bound to mTOR and is independent of raptor

Reference: US20040253677
